Columns and labels:
[1] = biological target: T1, human ICOS expressed on the surface of cells (human, UniProt Q9Y6W8 21-199); experiment: flow cytometry on CHO-S cells, purified IgG1
T1 construct: also called hICOS; Human ICOS CHO
T1 sequence: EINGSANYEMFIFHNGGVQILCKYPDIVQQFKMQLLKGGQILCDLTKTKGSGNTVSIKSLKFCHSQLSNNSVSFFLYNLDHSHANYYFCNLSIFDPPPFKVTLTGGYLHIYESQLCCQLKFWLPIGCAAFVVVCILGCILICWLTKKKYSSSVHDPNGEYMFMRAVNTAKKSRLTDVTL

[2] = biological target: T2, mouse ICOS expressed on the surface of CHO-S cells (mouse, UniProt Q9WVS0 21-200); experiment: flow cytometry on CHO-S cells, purified IgG1
T2 construct: whole, on cells; also called mICOS; Mouse ICOS CHO
T2 sequence (looked up): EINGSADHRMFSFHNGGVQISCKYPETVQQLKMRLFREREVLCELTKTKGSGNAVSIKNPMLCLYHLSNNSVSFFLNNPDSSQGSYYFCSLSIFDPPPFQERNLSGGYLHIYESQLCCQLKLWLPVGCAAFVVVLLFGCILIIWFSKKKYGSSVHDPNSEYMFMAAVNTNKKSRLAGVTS

B1: CL-61091 (antibody, V domains shown)
VH: QVQLMQSGTEVKKPGASVKVSCKTSGYTFTTYGITWVRQAPGQGLEWMGWISAYSGDTDYAQKFQGRVTVTTDTSTNTAYMELRSLKSDDTAVYYCARSSGWPHHYGMDVWGQGTTVTVSS
VL: DIVMTQSPLSLPVTPGEPASISCRSSQSLLHSNGFNYFDWYLQKPGQSPQLLIFLVSNRASGVPDRFSGSGSGTDFTLKISRVEAEDVGIYYCMQALQTPLTFGGGTKVEIK
fold above the average of geomean of the negative control [1]: > 10 fold
fold above the average of geomean of the negative control [2]: > 10 fold

B2: CL-74570 (antibody, V domains shown)
VH: EVQLVESGGGVIRPGGSLRLSCAASGFTFDDYGMSWVRQAPGKGLEWVSGINWIGDNTDYADSVKGRFTISRDNAKNSLYLQMNSLRAEDTALYYCARDYFGSGSYYNVPF
VL: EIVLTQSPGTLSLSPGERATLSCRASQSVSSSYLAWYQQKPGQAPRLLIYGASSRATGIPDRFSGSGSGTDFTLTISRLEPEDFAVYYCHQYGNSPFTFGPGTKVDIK
fold above the average of geomean of the negative control [1]: > 10 fold
fold above the average of geomean of the negative control [2]: > 10 fold
